From patent US20020197702A1 (IDUN PHARMACEUTICALS, published 2002)
Ends that are not written are not given here. * marks the point of attachment. Cbz = O=C(OCc1ccccc1)*

How the values were obtained:
Test in all cases: cell-based or functional assay
r-caspase-3 (His)6 [1] = target: T1, r-caspase-3 (His)6 (human, UniProt P42574 29-175; P42574 176-277)
T1 sequence 1: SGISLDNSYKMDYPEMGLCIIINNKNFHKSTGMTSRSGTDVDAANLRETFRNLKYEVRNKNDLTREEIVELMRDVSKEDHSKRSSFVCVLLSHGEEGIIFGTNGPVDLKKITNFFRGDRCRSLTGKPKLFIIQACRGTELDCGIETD
T1 sequence 2: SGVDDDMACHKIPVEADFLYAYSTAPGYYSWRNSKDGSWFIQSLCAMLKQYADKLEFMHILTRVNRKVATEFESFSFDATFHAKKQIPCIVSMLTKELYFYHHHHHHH

[2] = target: T2, affinity purified membrane derived caspase-3 from 697 cell heavy membranes (human, UniProt P42574 14-175; P42574 176-277, limits assumed)
T2 chain 1: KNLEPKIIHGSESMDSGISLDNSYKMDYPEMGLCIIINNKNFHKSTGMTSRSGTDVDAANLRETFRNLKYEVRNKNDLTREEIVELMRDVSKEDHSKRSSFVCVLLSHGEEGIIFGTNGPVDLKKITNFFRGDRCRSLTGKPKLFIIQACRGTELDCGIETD
T2 chain 2: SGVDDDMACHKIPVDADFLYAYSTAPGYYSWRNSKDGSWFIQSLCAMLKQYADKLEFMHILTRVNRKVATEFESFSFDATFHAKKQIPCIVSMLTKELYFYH

[3] = target: cortical cell HM (caspase-1 treated) caspase (mouse)
[4] = target: MN9D HM (caspase-1 treated) caspase (mouse)
r-caspase-3 (His)6 [5] = target: T1, r-caspase-3 (His)6; remark: listed apart in the source
[6] = target: T3, 697-neo HM (spontaneous activity) caspase (human, UniProt P42574 14-175, limits assumed)
T3 sequence 1: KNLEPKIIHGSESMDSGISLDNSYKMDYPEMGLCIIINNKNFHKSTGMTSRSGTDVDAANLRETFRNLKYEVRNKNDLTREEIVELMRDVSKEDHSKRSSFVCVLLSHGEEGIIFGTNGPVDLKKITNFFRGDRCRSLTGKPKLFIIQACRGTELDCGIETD
T3 sequence 2: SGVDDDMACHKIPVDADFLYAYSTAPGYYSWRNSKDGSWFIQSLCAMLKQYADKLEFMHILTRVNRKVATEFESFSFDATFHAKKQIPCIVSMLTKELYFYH

[7] = target: T4, 697-neo HM (caspase-1 treated) caspase (human, UniProt P42574 14-175; P42574 176-277, limits assumed)
T4 chain 1: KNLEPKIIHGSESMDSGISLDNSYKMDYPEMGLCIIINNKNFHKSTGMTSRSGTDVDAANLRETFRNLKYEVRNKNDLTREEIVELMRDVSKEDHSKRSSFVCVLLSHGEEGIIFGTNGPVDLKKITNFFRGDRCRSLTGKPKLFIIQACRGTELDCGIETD
T4 chain 2: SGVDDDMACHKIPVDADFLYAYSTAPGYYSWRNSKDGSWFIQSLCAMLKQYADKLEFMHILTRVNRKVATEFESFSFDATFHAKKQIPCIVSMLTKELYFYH

[8] = target: T5, 697 Bcl-2 HM (caspase-1 treated) caspase (human, UniProt P42574 14-175; P42574 176-277, limits assumed)
T5 chain 1: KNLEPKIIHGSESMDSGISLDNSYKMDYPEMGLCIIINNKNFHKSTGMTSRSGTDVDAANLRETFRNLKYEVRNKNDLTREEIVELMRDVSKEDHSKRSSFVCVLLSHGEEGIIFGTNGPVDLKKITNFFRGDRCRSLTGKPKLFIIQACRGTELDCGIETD
T5 chain 2: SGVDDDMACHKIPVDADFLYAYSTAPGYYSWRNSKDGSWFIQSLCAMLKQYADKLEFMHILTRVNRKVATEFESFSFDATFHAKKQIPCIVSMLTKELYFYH

For Cbz-Glu-Val-Asp-aldehyde (SMILES CC(C)[C@H](NC(=O)[C@H](CCC(=O)O)NC(=O)OCc1ccccc1)C(=O)N[C@H](C=O)CC(=O)O) [ZEVDald], which “IC50, inhibition of DEVD-AMC cleavage activity” value (r-caspase-3 (His)6 [1]) is on record?
Its value is 24 nM.

And the “IC50, inhibition of DEVD-AMC cleavage activity” value [2]?
Its value is 32 nM.

Which results are given for VEID-aldehyde [VEIDald]?
IC50, inhibition of DEVD-AMC cleavage activity (r-caspase-3 (His)6 [1]): 32 nM; IC50, inhibition of DEVD-AMC cleavage activity [2]: 34 nM

How did the “IC50, inhibition of DEVD-amc cleavage” value [3] turn out when DEVD-aldehyde [DEVD-ald] was run?
Its value is 1 nM.

What about the “IC50, inhibition of DEVD-amc cleavage” value [4] of the same binder?
The value was 0.72 nM.

What about the “IC50, inhibition of DEVD-amc cleavage” value (r-caspase-3 (His)6 [5]) of the same binder?
Its value is 1 nM.

What about the “IC50, inhibition of DEVD-AMC cleavage activity” value (r-caspase-3 (His)6 [1]) of the same binder?
The value was 1 nM.

What about the “IC50, inhibition of DEVD-AMC cleavage activity” value [2] of the same binder?
Its value is 1 nM.

How did the “IC50, inhibition of DEVD-amc cleavage” value [3] turn out when Ac-YVAD-aldehyde [YVAD-ald] was run?
The value was over 10000 nM.

What about the “IC50, inhibition of DEVD-amc cleavage” value [4] of the same binder?
The value was over 10000 nM.

What about the “IC50, inhibition of DEVD-amc cleavage” value (r-caspase-3 (His)6 [5]) of the same binder?
Its value is over 10000 nM.

Which “IC50, inhibition of DEVD-amc cleavage” value [3] does the source give for DFLD-aldehyde [DFLD-ald] here?
Its value is 2.3 nM.

What about the “IC50, inhibition of DEVD-amc cleavage” value [4] of the same binder?
The value was 2.5 nM.

What about the “IC50, inhibition of DEVD-amc cleavage” value (r-caspase-3 (His)6 [5]) of the same binder?
The value was 1.5 nM.

What about the “IC50, inhibition of DEVD-amc cleavage” value [6] of the same binder?
Its value is 3.4 nM.

And the “IC50, inhibition of DEVD-amc cleavage” value [7]?
The value was 4.5 nM.

And the “IC50, inhibition of DEVD-amc cleavage” value [8]?
Its value is 3.6 nM.

And the “IC50, inhibition of DEVD-AMC cleavage activity” value (r-caspase-3 (His)6 [1])?
Its value is 1.1 nM.

And the “IC50, inhibition of DEVD-AMC cleavage activity” value [2]?
Its value is 4.7 nM.
